US20140235553A1 (REGENTS OF THE UNIVERSITY OF COLORADO A BODY CORPRATE, published 2014)

B1: αB-crystallin (HSPB5), no transduction peptide (other)
chain: MDIAIHHPWIRRPFFPFHSPSRLFDQFFGEHLLESDLFPTSTSLSPFYLRPPSFLRAPSWFDTGLSEMRLEKDRFSVNLDVKHFSPEELKVKVLGDVIEVHGKHEERQDEHGFISREFHRKYRIPADVDPLTITSSLSSDGVLTVNGPRKQVSGPERTIPITREEKPAVTAAPKK
notes: also called native αB crystallin; unfused αB crystallin
B2: NTD-αA crystallin fusion protein (other)
chain: MGSRVQIRCRFRNSTRDVTIQHPWFKRTLGPFYPSRLFDQFFGEGLFEYDLLPFLSSTISPYYRQSLFRTVLDSGISEVRSDRDKFVIFLDVKHFSPEDLTVKVQDDFVEIHGKHNERQDDHGYISREFHRRYRLPSNVDQSALSCSLSADGMLTFCGPKIQTGLDATHAERAIPVSREEKPTSAPSS
notes: also called NTD modified α-crystallin subunit (αA)
B3: NTD-αB crystallin fusion protein (other)
chain: MGSRVQIRCRFRNSTRDIAIHHPWIRRPFFPFHSPSRLFDQFFGEHLLESDLFPTSTSLSPFYLRPPSFLRAPSWFDTGLSEMRLEKDRFSVNLDVKHFSPEELKVKVLGDVIEVHGKHEERQDEHGFISREFHRKYRIPADVDPLTITSSLSSDGVLTVNGPRKQVSGPERTIPITREEKPAVTAAPKK
notes: also called NTD-HSPB5; A B NgC

Tests used:
[1] = target: B3; assay: subunit exchange: AlexaFluor-labeled NTD-αB crystallin with 10-fold molar excess of unlabeled αB crystallin at 37° C., size exclusion FPLC, fluorescence of fractions
[2] = target: the molecule itself; assay: size exclusion chromatography, self-association into oligomeric complexes
[3] = target: the molecule itself; assay: size exclusion chromatography (Superose 6), self-association into oligomeric complexes

Binder: B1
- binding result [1]: binds

Binder: B2
- binding result [2]: binds

Binder: B3
- binding result [3]: binds
